Source: publication PMC5494197, “Deregulation of mitochondrial F1FO-ATP synthase via OSCP in Alzheimer’s disease” (Nature Communications, 2016)

Molecular target: T1, Aβ1–42 peptide (UniProt P05067 672-713)
T1 construct: amyloid beta 1-42, cut product of the amyloid beta precursor protein (APP); For neurons and isolated mitochondria the peptide was prepared as oligomeric Aβ (HFIP film, DMSO, HAM'S F-12, 4 °C for 24 h); for the pull-down the methods say only 'Aβ peptide'; also called amyloid beta; oligomeric Aβ1–42; source: synthetic peptide, bought: GenicBio
Assay: pull-down; GST-tagged OSCP on glutathione agarose as bait, incubated overnight at 4 °C with Aβ peptide; immunoblotting or coomassie staining
Conditions: both partners purified

- binding result: binds
B1: GST-tagged OSCP (oligomycin sensitivity conferring protein), wild type (natural protein, human, UniProt P48047 24-213, looked up)
chain: FAKLVRPPVQVYGIEGRYATALYSAASKQNKLEQVEKELLRVAQILKEPKVAASVLNPYVKRSIKVKSLNDITAKERFSPLTTNLINLLAENGRLSNTQGVVSAFSTMMSVHRGEVPCTVTSASPLEEATLSELKTVLKSFLSQGQVLKLEAKTDPSILGGMIVRIGEKYVDMSVKTKIQKLGRAMREIV
notes: oligomycin sensitivity conferring protein (OSCP) subunit of mitochondrial F1FO-ATP synthase, human cDNA (Gene Name ATP5O, NCBI Gene ID 539) in pGEX-4t-1; it may tell the limits of the construct; also called GST-OSCP; wild-type OSCP
